# Tests used:
# RNAse B = RNAse B (UniProt P61823)
# porcine uteroferrin = porcine uteroferrin (UniProt P09889)
# Chain of UniProt P09889 (P09889 22-340): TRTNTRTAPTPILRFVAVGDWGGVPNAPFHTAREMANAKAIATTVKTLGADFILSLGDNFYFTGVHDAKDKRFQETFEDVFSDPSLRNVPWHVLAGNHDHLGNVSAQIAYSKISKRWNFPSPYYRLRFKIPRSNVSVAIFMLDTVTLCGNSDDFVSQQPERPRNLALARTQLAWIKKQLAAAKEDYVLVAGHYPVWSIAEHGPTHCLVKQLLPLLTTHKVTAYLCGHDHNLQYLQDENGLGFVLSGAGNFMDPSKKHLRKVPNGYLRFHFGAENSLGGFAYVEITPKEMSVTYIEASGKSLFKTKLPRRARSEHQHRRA
# Chain of UniProt P61823 (P61823 27-150): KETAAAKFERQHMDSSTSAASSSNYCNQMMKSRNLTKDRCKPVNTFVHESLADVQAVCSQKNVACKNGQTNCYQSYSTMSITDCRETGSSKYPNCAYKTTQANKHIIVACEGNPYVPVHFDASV
substance,measurement,setting,value
bovine GlcNAc-phosphotransferase (UDP-N-acetylglucosamine: lysosomal enzyme N-acetylglucosamine-1-phosphotransferase),Km as acceptor for the transfer of GlcNAc-1-P,RNAse B,the Km was not reached at the solubility limit of the protein (at 600 µM)
same,Km as acceptor for the transfer of GlcNAc-1-P,cathepsin D,Kms below 20 µM
same,Km as acceptor for the transfer of GlcNAc-1-P,porcine uteroferrin,Kms below 20 µM
